Test [1] addresses T1, FcgRIIIaF (human, UniProt P08637 17-208).
T1 construct: extracellular domain; F158 allotype; also called FcγRIIIa F; not shown: C-terminal His tag
Description: SPR (Biacore), antibody captured on chip, FcgR as analyte. The protocol: (§1) The variants described above were assessed for their binding to FcγR according to the method described in Reference Example 8.
(§2) Analysis of interaction between obj ective antibody and the FcγR was carried out using Biacore T100 (GE Healthcare), Biacore T200, Biacore A100, and Biacore 4000. HBS-EP+ (GE Healthcare) was used as the running buffer, and the measurement temperature was set to 25° C. Chips produced by immobilizing the antigen peptide by the amine coupling method to a Series S sensor Chip CM5 (GE Healthcare), chips produced by allowing preliminarily biotinylated antigen peptides to interact with and immobilize onto a Series S Sensor Chip SA (certified) (GE Healthcare), chips produced by immobilizing Protein L (ACTIGEN, BioVision) to Series S Sencor Chip CM5 (GE Healthcare), or chips produced by immobilizing Protein A/G (Thermo Scientific) to Series S Sencor Chip CM5 (GE Healthcare) were used. Antibodies of interest were captured onto these chips, and allowed to interact to each FcγR diluted with running buffer. To regenerate and repeatedly use the chip, the antibodies captured onto the chip were washed off by reacting 10 mM glycine-HCl, pH 1.5.
For orientation: Surface plasmon resonance follows binding to a sensor surface in real time, without labels.

Test [2] has as its target T2, FcgRIIaH (human, UniProt P12318 34-217).
T2 construct: extracellular domain; H131 allotype; also called FcγRIIa H; FcgRIIa type H; not shown: C-terminal His tag
T2 sequence (looked up): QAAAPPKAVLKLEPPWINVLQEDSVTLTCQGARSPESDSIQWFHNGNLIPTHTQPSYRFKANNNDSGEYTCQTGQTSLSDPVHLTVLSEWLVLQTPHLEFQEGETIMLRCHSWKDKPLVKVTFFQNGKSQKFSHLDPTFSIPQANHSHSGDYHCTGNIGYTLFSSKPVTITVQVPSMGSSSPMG
The description is as above. The method, then:
as §1, §2

Test [3] addresses T3, FcgRIIb (human, UniProt P31994 43-217).
T3 construct: extracellular domain; also called FcγRIIb; CD32B; not shown: C-terminal His tag
T3 sequence (looked up): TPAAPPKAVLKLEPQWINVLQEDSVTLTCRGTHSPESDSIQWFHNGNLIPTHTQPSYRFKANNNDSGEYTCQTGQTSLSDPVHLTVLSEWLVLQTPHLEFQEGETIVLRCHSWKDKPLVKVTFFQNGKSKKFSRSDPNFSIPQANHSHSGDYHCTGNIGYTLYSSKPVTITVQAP
Described as above. The protocol: as §1, §2

The target of test [4] is T4, FcgRIIaR (human, UniProt P12318 34-217).
T4 construct: extracellular domain; R131 allotype; also called FcγRIIa R; FcgRIIa type R; not shown: C-terminal His tag
T4 sequence (looked up): T2 sequence (looked up) with H134R
The description is as above. The method, then:
as §1, §2

Test [5] concerns the target T5, FcgRIIIaV (human, UniProt P08637 17-208).
T5 construct: extracellular domain; V158 allotype; also called FcγRIIIa V; not shown: C-terminal His tag
Described as above. The protocol:
as §1, §2

For test [6], the target named is T6, FcgRIa (human, UniProt P12314 16-292).
T6 construct: extracellular domain; also called FcγRIa; FcγRI; not shown: C-terminal His tag
T6 sequence (P12314 16-292): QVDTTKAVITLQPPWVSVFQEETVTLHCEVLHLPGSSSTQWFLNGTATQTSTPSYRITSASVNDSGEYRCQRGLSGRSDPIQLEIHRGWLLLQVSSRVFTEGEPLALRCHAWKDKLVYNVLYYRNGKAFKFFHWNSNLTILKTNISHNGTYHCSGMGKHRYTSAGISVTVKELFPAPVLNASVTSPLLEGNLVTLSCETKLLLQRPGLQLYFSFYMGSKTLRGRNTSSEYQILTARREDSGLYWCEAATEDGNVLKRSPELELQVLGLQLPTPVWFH
The test is described as above. The protocol: as §1, §2

The target of test [7] is T1, FcgRIIIaF. Described as above. The protocol: (§3) The variants described above were assessed for their binding to FcgR according to the method described in Reference Example 8.
as §2
The source holds these as a separate data set.

Test [8] concerns the target T2, FcgRIIaH. The test is described as above. The protocol: as §3, §2
This is another data set of the same source.

Test [9] deals with T3, FcgRIIb. Described as above. The protocol:
as §3, §2
This is another data set of the same source.

Test [10] addresses T4, FcgRIIaR. The description is as above. The method, then:
as §3, §2
This is another data set of the same source.

Test [11] has as its target T5, FcgRIIIaV. Described as above. The method, then:
as §3, §2
This is another data set of the same source.

The target of test [12] is T6, FcgRIa. The description is as above. The method, then:
as §3, §2
The source holds these as a separate data set.

The target of test [13] is T1, FcgRIIIaF. Description: SPR (Biacore); KD of H240-Kn120/H240-Hl068/L73-k0 divided by KD of the sample. The method, then: as §1, §2
Test [14] addresses T2, FcgRIIaH. Described as above. The protocol: as §1, §2
The target of test [15] is T3, FcgRIIb. Described as above. The protocol: as §1, §2
Test [16] addresses T4, FcgRIIaR. The description is as above. The method, then:
as §1, §2

The target in test [17] is T5, FcgRIIIaV. The description is as above. The protocol:
as §1, §2

In test [18] the target is T1, FcgRIIIaF. Described as above. The protocol: as §3, §2
This is another data set of the same source.

Test [19] deals with T2, FcgRIIaH. The description is as above. The method, then: as §3, §2
The source holds these as a separate data set.

Test [20] addresses T3, FcgRIIb. Described as above. The protocol: as §3, §2
This is another data set of the same source.

In test [21] the target is T4, FcgRIIaR. The test is described as above. The protocol:
as §3, §2
The source holds these as a separate data set.

Test [22] deals with T5, FcgRIIIaV. The test is described as above. The protocol: as §3, §2
The source holds these as a separate data set.

Where a chain is given by its changes, count along the chain named. In names and notes the source's numbering stands. Where two headings read alike, the source gives them in different places.

T5 sequence (P08637 17-208 F176V limits assumed): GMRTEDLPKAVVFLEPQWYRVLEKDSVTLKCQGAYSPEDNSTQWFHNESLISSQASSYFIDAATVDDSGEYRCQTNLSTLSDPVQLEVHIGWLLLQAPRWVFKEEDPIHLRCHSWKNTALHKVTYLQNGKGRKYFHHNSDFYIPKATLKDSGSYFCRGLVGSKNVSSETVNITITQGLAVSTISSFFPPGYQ
T1 sequence (P08637 17-208): as the sequence (P08637 17-208 F176V limits assumed) above, with V160F counted along it

B1: H240-Kn120/H240-Hl089/L73-k0 (antibody, human IgG1, kappa)
heavy 1: QDQLVQSGAEVKKPGASVKVSCKASGFNIKDTYIQWVRQAPGQGLEWMGRIDPLRKQTKYREKFEGRVTITADTSTNTAYMELSSLRSEDTAVYYCVRSGREFDYWGQGTLVTVSSASTKGPSVFPLAPSSKSTSGGTAALGCLVKDYFPEPVTVSWNSGALTSGVHTFPAVLQSSGLYSLSSVVTVPSSSLGTQTYICNVNHKPSNTKVDKKVEPKSCDKTHTCPPCPAPEYYWGPMVFLFPPKPKDTLMISRTPEVTCVVVDVSDEDPEVKFNWYVDGVEVHNAKTKPREEQYNATYRVVSVLTVLHQDWLNGKEYKCKVSNKDLPAPIEKTISKAKGQPREPQVCTLPPSRDELTKNQVSLWCLVKGFYPSDIAVEWESNGQPENNYKTTPPVLDSDGSFFLYSKLTVDKSRWQQGNVFSCSVMHEALHNHYTQKSLSLSP
heavy 2: QDQLVQSGAEVKKPGASVKVSCKASGFNIKDTYIQWVRQAPGQGLEWMGRIDPLRKQTKYREKFEGRVTITADTSTNTAYMELSSLRSEDTAVYYCVRSGREFDYWGQGTLVTVSSASTKGPSVFPLAPSSKSTSGGTAALGCLVKDYFPEPVTVSWNSGALTSGVHTFPAVLQSSGLYSLSSVVTVPSSSLGTQTYICNVNHKPSNTKVDKKVEPKSCDKTHTCPPCPAPELLTGPSVFLFPPKPKDTLMISRTPEVTCVVVDVSHEEPEVKFNWYVDGVEVHNAKTKPREEQYNSTYRVVSVLTVLHQDWLNGKEYKCKVSNDALPKPIEETISKAKGQPREPQVYTLPPSRCELTKNQVSLSCAVKGFYPSDIAVEWESNGQPENNYKTTPPVLDSDGSFFLVSKLTVDKSRWQQGNVFSCSVMHEALHNHYTQKSLSLSP
light: DIQMTQSPSSLSASVGDRVTITCRASQDIHKYIAWYQQKPGQAPRLLIQYTSTLQPGVPSRFSGSGSGTDYTFTISSLQPEDIATYYCLQYEQLRTFGGGTKVEIKRTVAAPSVFIFPPSDEQLKSGTASVVCLLNNFYPREAKVQWKVDNALQSGNSQESVTEQDSKDSTYSLSSTLTLSKADYEKHKVYACEVTHQGLSSPVTKSFNRGEC
notes: Heterodimerized anti-epiregulin antibody; G236T in the Hl068 chain; also called H240-Kn120/H240-HI089/L73-k0
A word on the Kd: it is the constant that tells how readily two partners part at equilibrium. Lower therefore signals a tighter complex. Take B1: the equilibrium dissociation constant (Kd) was 12 nM in test [1]; 41 nM in test [2]; 190 nM in test [3]; 14 nM in test [4]; 5.4 nM in test [5]; 0.18 nM in test [6]. In addition, the Kd in test [7] stood at 12 nM; in test [8], 41 nM; in test [9], 190 nM; in [10], 14 nM; in test [11] it was 5.4 nM; in test [12], 0.18 nM. Also, the “Relative KD” value in [13] was found to be 0.2; in test [14], 1; in [15], 0.8; in test [16] it was 1.4; in [17], 0.1; in [18], 0.2. The “Relative KD” value in [19] was found to be 1; in test [20], 0.8; in test [21], 1.4; in test [22], 0.1.

These data come from US20180155451A1 (published 2018).
